Source: paper PMC7857409 (Science (New York, N.y.), 2020)

Target: SARS-CoV-2 Spike receptor binding domain (RBD) (SARS-CoV-2, ancestral (Wuhan-Hu-1) …, UniProt P0DTC2)
Experiment: SPR
Details: both partners purified

B1: nanobody Nb6 (class I synthetic nanobody) (VHH)
VHH: QVQLVESGGGLVQAGGSLRLSCAASGIIFGRNAMGWYRQAPGKERELVAGITRRGSITYYADSVKGRFTISRDNAKNTVYLQMNSLKPEDTAVYYCAADPASPAPGDYWGQGTQVTVSS
B1 was tested, and the Kd was 41 nM.
